Results reported in IntAct's records for PubMed 16482218.

B1: Transcription factor Dp-2 (Mus musculus), Q64163-4 (parent)
chain: MIISTPQRIANSGSVLIGNPYTPAPAMVTQTHIAEAAGWVPSDRKRAREFIDSDFSESKRSKKGDKNGKGLRHFSMKVCEKVQRKGTTSYNEVADELVSEFTNSNNHLAADSAYDQENIRRRVYDALNVLMAMNIISSLPTGKKRNQVDCNSAQECQNLEIEKQRRIERIKQKRAQLQELLLQQIAFKNLVQRNRQNEQQNQGPPAVNSTIQLPFIIINTSRKTVIDCSISSDKFEYLFNFDNTFEIHDDIEVLKRMGMSFGLESGKCSLEDLKIARSLVPKALEGYITDISTGPSWLNQGLLLNSTQSVSNLDPTTGATVPQSSVNQGLCLDAEVALATGQLPASNSHQSSSAASHFSESRGETPCSFNDEDEEDEEEDPSSPE

Variants of: B1
Conditions: with 1433e_mouse Ywhae

Row | Variant | effect of a mutation on the interaction
1 | S53A | disrupting interaction
2 | S42A | disrupting interaction
3 | S56A | disrupting interaction

More lines, now with the values ahead:

Row | effect of a mutation on the interaction | Variant
4 | disrupting interaction | S61A
5 | disrupting interaction | S58A
